# Reference: patent US20020009436A1, “Methods and compositions for inhibiting adhesion by microorganisms” (priority 1999, published 2002)
# How the values were obtained:
# [1] = system: Klebsiella pneumoniae; assay: Growth inhibition of Klebsiella pneumoniae; type: cell-based
# [2] = system: Proteus vulgaris; assay: Growth inhibition of Proteus vulgaris; type: cell-based
# [3] = system: Salmonella enteritidis; assay: Hemagglutination of horse red blood cells by Salmonella enteritidis; type: cell-based; design: key: + Hemagglutination; − No hemagglutination; conditions: 2 hr incubation, polyphenol oxidase 70 U/ml, asparaginase 65 U/ml
# Protocol: Three Salmonella enteritidis clinical isolate strains, SE 79, SE 89-8312 and SE S1-072-Z were used. The bacterial strains were grown statically in brain heart infusion (BHI) broth for 48 h at 37° C. The cells were harvested by centrifugation and washed twice in 10 mM phosphate buffer (PB) pH 7.5. The final bacterial pellet was then suspended in the same buffer to the desired density.
# Bacterial suspensions OD 1.0 (5 ml each) were mixed in the absence and presence of polyphenol oxidase (70 U/ml) or asparaginase (65 U/ml) and incubated statically at 37° C. for 2 h. The cells were then centrifuged and washed 2 times with PB (pH 7.5) and were suspended at a final volume 125 μl. These cells were subjected to hemagglutination tests.
# For hemagglutination studies, red blood cells from horse were used. The red blood cells were washed with PBS (pH 7.5) by low speed centrifugation 10 min and suspended to 2% in the same buffer.
# [4] = system: S. pyogenes; assay: Adhesion of S. pyogenes to human buccal cells (light microscopy counts); type: cell-based, Streptococcus pyogenes
# Protocol: Streptococcus pyogenes strains were grown and pure cultures isolated on blood agar plates at 37° C. Each were subsequently inoculated into brain heart infusion (BHI) nutrient broth at 37° C. for continued growth.
# The cells of each S. pyogenes strains were then washed with phosphate buffer (pH 7) three times. The optical density (OD) of each stain was measured using a spectrophotometer, and adjusted to 0.8. One ml of each strain was treated with polyphenol oxidase or asparaginase. The controls and enzyme-supplemental cells were incubated for ninety minutes at 37° C. Each were washed three times for ten minutes at 15,000 rpm, and recollected in 0.9 ml phosphate buffer.
# Human buccal cells were collected and cleaned in phosphate buffer. The buccal cells and S. pyogenes were combined in a ratio of 3:1 respectively, for each strain and allowed to incubate 30 min. Buccal cells were removed by centrifugation (500×g) and washed three times to reduce streptococcal background. The buccal cell-streptococcal complexes were then smeared on slides. The resulting slides were stained using the Gram method, and viewed under the 100× oil immersion lens. The number of S. pyogenes for each strain was counted for at least 50 buccal cells.
# [5] = system: S. pyogenes; assay: Collagen binding assay, S. pyogenes; type: cell-based
# Protocol: Wells were filled with 1 mg/ml soluble collagen overnight at 4° C. Control wells were coated with 1% BSA. The protein solutions were removed and permitted to stand at 37° C. for 1 h. A solution of 2% BSA was added to the wells to block unoccupied sites and prevent non-specific binding of bacteria. After 30 min, BSA was removed and the wells were washed once with distilled water. Finally, the bacterial suspensions (100 μl, OD 1.4) were added to the plates and incubated at 37° C. for 2 h. Unbound bacteria were removed by washing the wells three times with PBS containing 0.01% Tween 20. The wells were dried at 37° C. for 30 min and stained with crystal violet for 15 min. Wells were rinsed with distilled water and dried at 37° C. for 2 h. After adding 100 μl of 95% (v/v) ethanol to each well the plates were then shaken to release the stain and a reading of 550 nm was carried out.
# [6] = system: S. aureus; assay: Fibronectin binding assay, S. aureus; type: cell-based; conditions: polyphenol oxidase 80 U/ml, asparaginase 20 U/ml
# Protocol: (§1) Wells were filled with human serum fibronectin (50 μg/ml) diluted in carbonate buffer (50 mM Na2CO3—NaHCO3, pH 9.5 overnight). Controls were coated with 1% BSA. The wells were washed three times with PBS and incubated with PBS-Tween (0.5% Tween 20 and 0.05% NaN3) 1 h at 37° C. After attachment, the wells were washed three times with PBS-Tween and allowed to dry. Subsequent assays were as described hereinabove.
# [7] = system: S. epidermidis (clinical isolate); assay: Fibronectin binding assay, S. epidermidis; type: cell-based; conditions: polyphenol oxidase 80 U/ml, asparaginase 20 U/ml, untreated 0.17
# Protocol: as §1
# [8] = system: P. aeruginosa culture supernatants; assay: Proteolytic activity of P. aeruginosa culture supernatants on azocoll; type: biochemical; conditions: culture supernatants treated with 50 units/ml asparaginase
# [9] = system: P. gingivalis W50 (adhesin) / A. naeslundii T14V (receptor); assay: Coaggregation P. gingivalis W50 / A. naeslundii T14V; conditions: P. gingivalis W50 (adhesin) enzyme treated; polyphenol oxidase 90 U/ml, asparaginase 20 U/ml
# Protocol: (§2) S. sanguis 10556, A. naeslundii strains 12104 and T14V and E. coli were grown static cultures in Todd-Hewitt broth (BBL Microbiology Systems, Cockeysville, Md.). P. gingivalis W50, A. actinomycetemcomitans and C. ochracea were grown in brain heart infusion broth (BBL). F. nucleatum 22586 and P. intermedia 25611 were grown in modified Schaedler broth (BBL). All oral species except S. sanguis 10556 were incubated at 37° C. as static cultures under an anaerobic atmosphere containing H2, CO2 and N2(10:10:80) with GasPaks (BBL). S. sanguis was incubated at 37° C. as static cultures in 5% CO2.
# (§3) Bacteria were harvested in the mid to late exponential growth phase by centrifugation (10,000×g for 10 min at 4° C.). The cells were washed twice in coaggregation buffer (30 mM 3-[N-morpholino]propanesulfonic acid (MOPS), pH 7.0) and adjusted to an optical density of 0.6-0.8 at 540 nm (1-cm path). […]
# (§4) Coaggregation was assessed by turbidity changes. Following mixing of the cells for 10 s on a Vortex mixer, absorbance readings were made every 30 min. The percentage of coaggregation was calculated from the following formula: Percent coaggregation=[OD540(A)+OD540(B)−OD540(A+B)]/(OD540(A)+OD540(B)), where A is the control containing cells of one strain, B is the control containing cells of the other strain, and A+B is the reaction mixture containing both cells. […]
# [10] = system: F. nucleatum (adhesin) / A. actinomycetemcomitans (receptor); assay: Coaggregation F. nucleatum / A. actinomycetemcomitans; conditions: polyphenol oxidase 90 U/ml, asparaginase 20 U/ml
# Protocol: as §2, §3, §4
molecule,measurement,setting,value
"asparaginase: enzyme that catalyzes hydrolysis of the side chain amide group of asparagine to a carboxyl group; E. coli asparaginase (protein, UniProt P00805 23-348, looked up) L-asparaginase 2: LPNITILATGGTIAGGGDSATKSNYTVGKVGVENLVNAVPQLKDIANVKGEQVVNIGSQDMNDNVWLTLAKKINTDCDKTDGFVITHGTDTMEETAYFLDLTVKCDKPVVMVGAMRPSTSMSADGPFNLYNAVVTAADKASANRGVLVVMNDTVLDGRDVTKTNTTDVATFKSVNYGPLGYIHNGKIDYQRTPARKHTSDTPFDVSKLNELPKVGIVYNYANASDLPAKALVDAGYDGIVSAGVGNGNLYKSVFDTLATAAKTGTAVVRSSRVPTGATTQDAEVDDAKYGFVASGTLNPQKARVLLQLALTQTKDPQQIQQIFNQY",inhibition of growth of Klebsiella pneumoniae,[1],did not significantly inhibit growth
same,inhibition of growth of Proteus vulgaris,[2],did not significantly inhibit growth
same,Hemagglutination,"[3]; SE 79, dilution 1/1",+
same,Hemagglutination,"[3]; SE 79, dilution 1/2",−
same,Hemagglutination,"[3]; SE 79, dilution 1/4",−
same,Hemagglutination,"[3]; SE 79, dilution 1/8",−
same,Hemagglutination,"[3]; SE 79, dilution 1/16",−
same,Hemagglutination,"[3]; SE 79, dilution 1/32",−
same,Hemagglutination,"[3]; SE 79, dilution 1/64",−
same,Hemagglutination,"[3]; SE 79, dilution 1/128",−
same,Hemagglutination,"[3]; SE 89-8312, dilution 1/1",−
same,Hemagglutination,"[3]; SE 89-8312, dilution 1/2",−
same,Hemagglutination,"[3]; SE 89-8312, dilution 1/4",−
same,Hemagglutination,"[3]; SE 89-8312, dilution 1/8",−
same,Hemagglutination,"[3]; SE 89-8312, dilution 1/16",−
same,Hemagglutination,"[3]; SE 89-8312, dilution 1/32",−
same,Hemagglutination,"[3]; SE 89-8312, dilution 1/64",−
same,Hemagglutination,"[3]; SE 89-8312, dilution 1/128",−
same,Hemagglutination,"[3]; SES1-0072-Z, dilution 1/1",+
same,Hemagglutination,"[3]; SES1-0072-Z, dilution 1/2",−
same,Hemagglutination,"[3]; SES1-0072-Z, dilution 1/4",−
same,Hemagglutination,"[3]; SES1-0072-Z, dilution 1/8",−
same,Hemagglutination,"[3]; SES1-0072-Z, dilution 1/16",−
same,Hemagglutination,"[3]; SES1-0072-Z, dilution 1/32",−
same,Hemagglutination,"[3]; SES1-0072-Z, dilution 1/64",−
same,Hemagglutination,"[3]; SES1-0072-Z, dilution 1/128",−
same,Percent Inhibition,"[4]; Strain M4, asparaginase 100 U/ml",62%
same,"# S. pyogenes buccal cell, Asparaginase (100 U/ml)","[4]; Strain M4, asparaginase 100 U/ml, untreated 183",69
same,Percent Inhibition,"[4]; Strain M12 AC, asparaginase 100 U/ml",53%
same,"# S. pyogenes buccal cell, Asparaginase (100 U/ml)","[4]; Strain M12 AC, asparaginase 100 U/ml, untreated 191",89
same,Percent Inhibition,"[4]; Strain M14, asparaginase 100 U/ml",43%
same,"# S. pyogenes buccal cell, Asparaginase (100 U/ml)","[4]; Strain M14, asparaginase 100 U/ml, untreated 183",105
same,Percent Inhibition,"[4]; Strain M14, asparaginase, third line of the strain (line of polyphenol oxidase 300), own concentration not given",47%
same,"# S. pyogenes buccal cell, Asparaginase (100 U/ml)","[4]; Strain M14, asparaginase, third line of the strain (line of polyphenol oxidase 300), own concentration not given, untreated 183",77
same,Percent Inhibition,"[4]; Strain M15 Lowe, asparaginase 100 U/ml",23%
same,"# S. pyogenes buccal cell, Asparaginase (100 U/ml)","[4]; Strain M15 Lowe, asparaginase 100 U/ml, untreated 120",93
same,Percent Inhibition,"[4]; Strain M24, asparaginase 100 U/ml",61%
same,"# S. pyogenes buccal cell, Asparaginase (100 U/ml)","[4]; Strain M24, asparaginase 100 U/ml, untreated 142",55
same,Percent Inhibition,"[4]; Strain M24 VAN, asparaginase 100 U/ml",48%
same,"# S. pyogenes buccal cell, Asparaginase (100 U/ml)","[4]; Strain M24 VAN, asparaginase 100 U/ml, untreated 131",68
same,Percent Inhibition,"[4]; Strain M+, asparaginase 100 U/ml",64%
same,"# S. pyogenes buccal cell, Asparaginase (100 U/ml)","[4]; Strain M+, asparaginase 100 U/ml, untreated 148",53
same,Absorbance (collagen),"[5]; S. pyogenes M4, untreated 0.19",0.10
same,Absorbance (collagen),"[5]; S. pyogenes M24, untreated 0.31",0.13
same,Absorbance (fibronectin),"[6]; S. aureus Cowan, untreated 0.33",0.18
same,Absorbance (fibronectin),"[6]; S. aureus Wood, untreated 0.42",0.35
same,Absorbance (fibronectin),[7],0.16
same,proteolytic activity on azocoll,[8],markedly reduced proteolytic activity
same,Inhibition % of coaggregation,[9],i 31%
same,Inhibition % of coaggregation,[10]; A. actinomycetemcomitans (receptor) enzyme treated,40%
same,Inhibition % of coaggregation,[10]; F. nucleatum (adhesin) enzyme treated,23%
